In patent US20180179274A1 (INSTITUTE FOR RESEARCH IN BIOMEDICINE, published 2018):

Molecular target: T1, RIFIN PF3D7_1400600 (Plasmodium falciparum)
T1 construct: A-type RIFIN; on transfected CHO cells, and native from 3D7-MGD21^+ IEs in the immunoprecipitation
T1 chain: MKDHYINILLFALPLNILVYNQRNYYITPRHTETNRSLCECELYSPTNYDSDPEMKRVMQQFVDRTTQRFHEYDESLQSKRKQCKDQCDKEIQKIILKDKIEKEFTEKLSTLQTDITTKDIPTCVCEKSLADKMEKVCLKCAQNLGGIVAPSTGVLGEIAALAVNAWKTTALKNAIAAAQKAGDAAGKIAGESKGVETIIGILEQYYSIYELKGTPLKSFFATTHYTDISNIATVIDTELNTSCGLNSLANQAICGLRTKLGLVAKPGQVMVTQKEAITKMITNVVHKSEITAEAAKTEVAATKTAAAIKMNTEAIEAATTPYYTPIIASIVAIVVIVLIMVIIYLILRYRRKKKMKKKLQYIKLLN
Experiment: immunoprecipitation and LC-MS

B1: MGD21 (antibody)
VH: EVQLVETGPGLMKTSGTLSLTCAVSGDYVNTNRRWSWVRQAPGKGLEWIGEVHQSGRTNYNPSLKSRVTISVDKSKNQFSLKVDSVTAADTAVYYCARASPLKSQRDTDLPRPSISAEPGTVIPLGSHVTFVCRGPVGVQTFRLERERNYLYSDTEDVSQTSPSESEARFRIDSVNAGNAGLFRCIYYKSRKWSEQSDYLELVVKGEDVTWALSQSQDDPRACPQGELPISTDIYYVDVWGNGTTVTVSS
VL: AIRMTQSPSSLSASPGDKVSITCRASQHINDSLAWFQQRPGKAPKLLIYGASNLHSGVPSRFSGTGSGTDFTLTITGLQSEDFATYFCQQCNCFPPDFGQGTRLEIK
notes: Donor D; LAIR-1 insert in CDRH3; variable regions only; also called MGD21 ANTIBODY; mAb MGD21
log2 fold change (MGD21 immunoprecipitates of 3D7-MGD21^+ against 3D7-MGD21^- IEs): 2 log2 fold
